Source: US11994512B2, “Single-cell genomic methods to generate ex vivo cell systems that recapitulate in vivo biology with improved fidelity” (Massachusetts Institute of Technology, priority 2018, dated 2024)

B1: Q8BPQ7 (protein, UniProt Q8BPQ7 1-1093, looked up)
chain: MASVPAEAETRQRLLRTVKKEVKQIMEEAVTRKFVHEDSSHIISFCAAVEACVLHGLRRRAAGFLRSNKIAALFMKVGKGFPPAEELSRKVQELEQLIESARNQIQGLQENVRKLPKLPNLSPLAIKHLWIRTALFGRVLDKIVHYLVENSSKYYEKEALLMDPVDGPILASLLVGPCALEYTKMKTADHFWTDPSADELVQRHRIHSSHLRQDSPTKRPALCIQKRHSSGSMDDRPSISARDYVESLHQDSRATLLYGKNNVLVQPRDDMEAVPGYLSLHQTADVMTLKWTPNQLMNGSVGDLDYEKSVYWDYAVTIRLEEIVYLHCHQQVDSGGTVVLVSQDGIQRPPFRFPKGGHLLQFLSCLENGLLPHGQLDPPLWSQRGKGKVFPKLRKRSPQGSSESTSSDKEDDEATDYVFRIIYPGTQSEFVPQDLMDVSMNNLPPLWQPSPRKSSCSSCSQSGSADGGSTNGCNHERAPLKLLCDNMKYQILSRAFYGWLAYCRHLSTVRTHLSALVNHMIVSPDLPCDAGQGLTASIWEKYIQDSTTYPEQELLRLIYYGGVQPEIRRAVWPFLLGHYQFGMTEMERKEVDEQIHACYAQTMSEWLGCEAIVRQRERESHAAALAKCSSGASLDSHLHRMLHRDSTISNESSQSCSSGRQNLRLQSDSSSSTQVFESVDEVEQTEAEGRSEEKHPKIPNGNPANGTCSPDSGHPSSHNFSSGLSEHSEPSLSTEDSVLDAQRSLPAVFRPGDSSVEDGQSSEATTSRDEAPREELAVQDSLESDLLANESLEEFMSIPGSLDVALPEKDGAVMDGWPGEADKPSRADSEDNLSEEPEMESLFPALASLAVTSSANNEASPVSSSGVTYSPELLDLYTVNLHRIEKDVQRCDRSYWYFTAANLEKLRNIMCSYIWQHIEIGYVQGMCDLLAPLLVILDDEALAFSCFTELMKRMNQNFPHGGAMDTHFANMRSLIQILDSELFELMHQNGDYTHFYFCYRWFLLDFKRELVYDDVFSVWETIWAAKHVSSAHYVLFIALALVEVYRDIILENNMDFTDIIKFFNEMAERHNAKQILQLARDLVHKVQILIENK
modifications: full-length
B2: Q8BZ20 (protein, UniProt Q8BZ20 1-711, looked up)
chain: MAQAAVAVAEVTQLLCAAGGALELAELRRRLRTSLGTDALERLLRDCGRFVVASRAVVAVGAGREAAAAASERLVLAVSSLRLCRAHQGPKPGCTGLCAQLHLCKFLIYGNCKFLKTGKNCRNGHNLKTDHNLSVLRTHGVDHLTYTELCQLLLQNDPSLLPDICLHYNKGDGPFGSCSFQKQCIKLHICQYFLQGECKFGTSCKRSHEFTNSESLEQLERLGLSSDLVSRLLSTYRNAYDIKNKGSALSKVSPSPAGPQGSSERKDSSGPVSPGTPSQEESEQICLYHIRKSCSFQEKCHRVHFHLPYRWQFLDGGKWKDLDNMELIEEAYSNPSKDRIVYTESAAGFHFDNLDFNSMKFGNTLARRLSTASSVTKPPHFILTTDWIWYWMDEFGSWQEYGRQGSGHPVTTISSSDVERAYLAFCAPGADAQAATLKFQAGKHNYELHFKAFLQKNLVYGTIRKVCRRPKYVSPQDVQMKQSCNTKLHGPKSIPDYWDPAALPDLGFKKITLSSSSEEYQKVWNIFNRTLPFYFVQKIERIQNMGLWEVYQWQKCQMQKQNGGKEVDERQLFHGTSANFVDAICQQNFDWRVCGLHGTSYGKGSYFARDAAYSHHYSKSDTHSHMMFLARVLVGDFVRGSTSFVRPPAKEGQSNAFYDSCVNSMSDPTIFVVFEKHQVYPEYLIQYSTSSKPPASPSIFVALGNLFTSRQ
modifications: full-length
B3: Q8BW75 (protein, UniProt Q8BW75 1-520, looked up)
chain: MSNKSDVIVVGGGISGMAAAKLLHDCGLSVVVLEARDRVGGRTYTIRNKNVKYVDLGGSYVGPTQNRILRLAKELGLETYKVNEVERLIHFVKGKSYAFRGPFPPVWNPITYLDNNNLWRTMDEMGQEIPSDAPWKAPLAEEWDYMTMKELLDKICWTKSTKQIATLFVNLCVTAETHEVSALWFLWYVKQCGGTTRIISTTNGGQERKFIGGSGQVSERIKDILGDRVKLERPVIHIDQTGENVIVKTLNHEIYEAKYVISAIPPALGMKIHYSPPLPMLRNQLISRVPLGSVIKCMVYYKEPFWRKKDFCGTMVIEGEEAPIAYTLDDTKPDGTYAAIMGFILAHKARKLVRLTKEERLRKLCELYAKVLNSQEALQPVHYEEKNWCEEQYSGGCYTTYFPPGILTQYGRVLRQPVGKIFFAGTETASHWSGYMEGAVEAGERAAREILHAIGKIPEDEIWQPEPESLDVPARPITSTFLERHLPSVPGLLKLFGLTTILSATALGFLAHKRGLFVHF
modifications: full-length
B4: Q8C159 (protein, UniProt Q8C159 1-568, looked up)
chain: MTEAEVGAEDLDTLLDELDYLPGHFHLEMQLNFEPRSPAQLRARDLKLQREGLRQELELVATPQLPAVRHLLGTFSFYLEELGDAREHFLEVARKDPGNLNAWANLAHVYGQLGQEEEEEASAGRLASLMGLEGDPEDAGDPRLRAARCLAEQGYAHGFDVGCASPEERAQVLEAGIALYDKALGYGQQIPIEEKRSWYFTMATLFIRLDGIFLEMGSEEQKRLPAFNRTLALLGEVLKSSDSRHQALAWCYVGMLLERKDTFSTTPMGVHEYGYSGTEPLDCFGKAIEIAKNQPPILNRLAKIFHFLGKQDMAVGTCNMVLAVLTDPELNWQAYCTRAKVRIRAYVHDLERAKVGLGGLPDRNHLACAKADLEEVVKVCPSLRTYLDISQVYYYMGVDAMRELLAVDEAALNQALVFLAKAGELELGDTLPELQLLRGKCLRVQGEDANAAACFKRAVELDDEGSSHTEGFGCLLEALLAQWSQAQLSDGEVGYEVDVWLRHAQGKYPAARLRQELQRVWRGHTEEVLGLARALVAQGRPALVRLLFETMEHEGEDAGGSGKSRVSS
modifications: full-length

Test system: intracellular proteome of ENR+CD and ENR organoids
Assay: LC-MS/MS TMT proteomics of ENR+CD versus ENR organoids
Type: cell-based, C57BL/6 mice
Details: for Average logFC: ENR+CD versus ENR organoids, sample pairs in aggregate (n=4, 2 technical replicates from two biological donors); for M1-1 Log2 Median Normalized / M1-2 Log2 Median Normalized / M2-1 Log2 Median Normalized / M2-2 Log2 Median Normalized: protein abundance ratio ENR+CD versus ENR organoids, LC-MS/MS TMT proteomics; for M1-1 Log2 Median Normalized: sample pair M1-1; for M1-2 Log2 Median Normalized: sample pair M1-2; for M2-1 Log2 Median Normalized: sample pair M2-1; for M2-2 Log2 Median Normalized: sample pair M2-2; for change: up = enriched in ENR+CD, down = enriched in ENR, FDR<0.05 and log fold change cut-off

Molecule	Average logFC	M1-1 Log2 Median Normalized	M1-2 Log2 Median Normalized	M2-1 Log2 Median Normalized	M2-2 Log2 Median Normalized	change
B1	1.34	1.5	0.707	1.4015	1.339	up
B2	1.138	1.138	0.69	1.1465	1.295	up
B3	−1.176	−0.94	−1.056	−1.8625	−1.177	down
B4	−1.177	−0.633	−1.446	−1.1765	−1.271	down
